Test results: PMC2064468 (The Journal of Cell Biology, 2007)

Target: T1, FtsY (bacterial SRP receptor), wild type, as used in the GTPase assays (Escherichia coli, UniProt P10121 1-497)
T1 sequence (looked up): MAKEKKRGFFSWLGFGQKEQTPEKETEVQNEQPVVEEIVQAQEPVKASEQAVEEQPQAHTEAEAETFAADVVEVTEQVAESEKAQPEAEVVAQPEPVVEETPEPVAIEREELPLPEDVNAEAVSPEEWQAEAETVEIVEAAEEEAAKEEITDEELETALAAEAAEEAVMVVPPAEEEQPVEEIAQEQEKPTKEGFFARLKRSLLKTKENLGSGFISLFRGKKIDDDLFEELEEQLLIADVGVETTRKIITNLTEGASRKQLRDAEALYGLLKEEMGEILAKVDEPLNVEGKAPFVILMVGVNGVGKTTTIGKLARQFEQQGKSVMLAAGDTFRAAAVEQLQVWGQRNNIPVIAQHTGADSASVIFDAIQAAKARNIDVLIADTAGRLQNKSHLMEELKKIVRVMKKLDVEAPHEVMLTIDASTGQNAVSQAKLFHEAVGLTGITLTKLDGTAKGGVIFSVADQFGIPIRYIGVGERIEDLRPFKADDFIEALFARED
Assay: GTPase inhibition

B1: SRP with Ffh A144W (bound to the 4.5S SRP RNA) (natural protein, Escherichia coli, UniProt P0AGD7 1-453, looked up)
chain: MFDNLTDRLSRTLRNISGRGRLTEDNVKDTLREVRMALLEADVALPVVREFINRVKEKAVGHEVNKSLTPGQEFVKIVRNELVAAMGEENQTLNLAAQPPAVVLMAGLQGAGKTTSVGKLGKFLREKHKKKVLVVSADVYRPAWIKQLETLAEQVGVDFFPSDVGQKPVDIVNAALKEAKLKFYDVLLVDTAGRLHVDEAMMDEIKQVHASINPVETLFVVDAMTGQDAANTAKAFNEALPLTGVVLTKVDGDARGGAALSIRHITGKPIKFLGVGEKTEALEPFHPDRIASRILGMGDVLSLIEDIESKVDRAQAEKLASKLKKGDGFDLNDFLEQLRQMKNMGGMASLMGKLPGMGQIPDNVKSQMDDKVLVRMEAIINSMTMKERAKPEIIKGSRKRRIAAGCGMQVQDVNRLLKQFDDMQRMMKKMKKGGMAKMMRSMKGMMPPGFPGR
Ki: 260 nM
